Data taken from article PMC8459920 (Molecular & Cellular Proteomics : MCP, 2021).

Biological target: T1, Cullin-5 (Cul5) (UniProt Q93034 1-780)
T1 construct: also called full-length Cul5
T1 sequence: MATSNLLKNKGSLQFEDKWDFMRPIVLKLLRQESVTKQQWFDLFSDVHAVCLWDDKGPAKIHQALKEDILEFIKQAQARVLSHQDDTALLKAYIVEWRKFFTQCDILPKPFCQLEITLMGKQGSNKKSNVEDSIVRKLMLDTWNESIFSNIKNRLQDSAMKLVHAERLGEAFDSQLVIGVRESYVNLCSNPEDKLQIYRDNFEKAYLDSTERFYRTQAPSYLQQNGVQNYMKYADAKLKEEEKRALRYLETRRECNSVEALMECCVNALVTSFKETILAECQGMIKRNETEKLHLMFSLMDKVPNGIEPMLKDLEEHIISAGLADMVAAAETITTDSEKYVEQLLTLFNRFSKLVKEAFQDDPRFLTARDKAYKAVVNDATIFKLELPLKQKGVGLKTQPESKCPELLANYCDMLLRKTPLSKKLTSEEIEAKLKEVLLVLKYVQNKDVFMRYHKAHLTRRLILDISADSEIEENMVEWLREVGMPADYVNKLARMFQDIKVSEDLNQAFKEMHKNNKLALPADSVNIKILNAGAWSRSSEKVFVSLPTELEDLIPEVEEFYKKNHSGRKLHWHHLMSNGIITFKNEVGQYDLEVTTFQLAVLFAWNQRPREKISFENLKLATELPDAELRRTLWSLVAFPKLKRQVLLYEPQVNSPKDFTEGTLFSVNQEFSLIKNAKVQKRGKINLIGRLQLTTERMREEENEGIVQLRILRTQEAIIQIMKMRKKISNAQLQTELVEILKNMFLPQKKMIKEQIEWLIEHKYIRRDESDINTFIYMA
Assay: cross-linking; DSSO cross-linking with LC-MS3 (XL-MS) of reconstituted complexes at ~5 uM in 20 mM HEPES pH 7.5, 300 mM NaCl, 10% glycerol; 37 °C, 30 min; cross-linked SDS-PAGE bands digested in gel with trypsin or chymotrypsin; data of the four complexes pooled
Settings: both partners purified

B1: Rbx2 (natural protein)
chain: MADVEDGEETCALASHSGSSGSKSGGDKMFSLKKWNAVAMWSWDVECDTCAICRVQVMDACLRCQAENKQEDCVVVWGECNHSFHNCCMSLWVKQNNRCPLCQQDWVVQRIGK
notes: also called E2 docking protein Rbx2
**Q.** Does B1 bind?
**A.** Result: binds
